Here are results for one substance from patent US20060074222A1.

Assay [1] has as its target Pin1 R14A (SEQ ID NO:2) (human) (UniProt Q13526). As to the kind of experiment: cell-based or functional assay.
The target of assay [2] is Pin1 (wild-type, SEQ ID NO:1) (human) (UniProt Q13526). As to the kind of experiment: cell-based or functional assay.

Regarding phosphokinase A (PKA) (enzyme), the figures for the MALDI-TOF mass increase after PKA treatment in assay [1] and in assay [2] were 90 Daltons and 160 Daltons, respectively.
